Measured values reported in patent US20240076386A1 (Pfizer, published 2024).
Residue numbers refer to the chain shown, from its start.

T1: recombinant histidine-tagged cynomolgus monkey E-selectin (Sino Biologicals; 190169-C08H) (cynomolgus monkey, UniProt A0A2K5U7H9 22-554)
T1 construct: also called recombinant cynomolgus monkey E-selectin
T1 sequence: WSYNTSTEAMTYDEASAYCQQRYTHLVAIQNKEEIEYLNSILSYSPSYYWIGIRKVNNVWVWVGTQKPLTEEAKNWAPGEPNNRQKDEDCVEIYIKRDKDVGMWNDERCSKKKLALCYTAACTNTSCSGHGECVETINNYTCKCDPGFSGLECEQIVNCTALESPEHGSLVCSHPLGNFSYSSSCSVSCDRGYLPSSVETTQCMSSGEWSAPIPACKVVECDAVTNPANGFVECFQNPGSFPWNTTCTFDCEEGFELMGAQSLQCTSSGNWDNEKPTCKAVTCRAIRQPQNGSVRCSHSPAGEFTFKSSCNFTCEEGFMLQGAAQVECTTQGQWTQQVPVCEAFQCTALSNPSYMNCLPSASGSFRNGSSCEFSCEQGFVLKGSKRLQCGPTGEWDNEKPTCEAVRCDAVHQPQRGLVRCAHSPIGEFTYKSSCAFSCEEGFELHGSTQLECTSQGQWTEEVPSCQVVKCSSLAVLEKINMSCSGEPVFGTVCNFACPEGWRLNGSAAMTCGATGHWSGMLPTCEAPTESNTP

T2: recombinant histidine-tagged human E-selectin (Sino Biologicals; 13025-H08H) (human, UniProt P16581 22-556)
T2 construct: also called recombinant human E-selectin; soluble recombinant human E-selectin
T2 sequence (looked up): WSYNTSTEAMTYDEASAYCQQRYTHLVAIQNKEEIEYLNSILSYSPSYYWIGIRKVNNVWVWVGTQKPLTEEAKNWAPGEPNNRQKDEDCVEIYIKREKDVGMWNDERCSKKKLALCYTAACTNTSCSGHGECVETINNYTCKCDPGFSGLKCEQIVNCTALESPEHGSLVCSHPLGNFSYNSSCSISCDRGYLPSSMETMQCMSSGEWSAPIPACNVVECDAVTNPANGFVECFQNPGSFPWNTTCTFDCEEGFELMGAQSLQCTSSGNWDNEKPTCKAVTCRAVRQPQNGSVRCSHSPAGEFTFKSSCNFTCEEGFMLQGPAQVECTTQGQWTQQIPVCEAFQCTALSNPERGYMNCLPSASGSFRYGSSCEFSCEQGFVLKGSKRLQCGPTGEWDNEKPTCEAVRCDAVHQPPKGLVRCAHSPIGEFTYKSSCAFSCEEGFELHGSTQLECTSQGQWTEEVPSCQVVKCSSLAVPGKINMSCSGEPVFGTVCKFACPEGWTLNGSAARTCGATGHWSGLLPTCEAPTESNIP

T3: free soluble human E-selectin in human serum (human, UniProt P16581 22-556, limits assumed)
T3 construct: also called endogenous human E-selectin
T3 sequence (looked up): T2 sequence (looked up)

B1: humanized anti-E-selectin antibody 0841 (antibody, human IgG1, kappa, V domains shown)
VH: EVQLVESGGGLVQPGGSLRLSCAASGYNIRSSYMHWVRQAPGKGLEWVARIDPANGNTIYAEKFKIRFTISADNAKNSAYLQMNSLRAEDTAVYYCAMDLYSTSEYWGQGTLVTVSS
VL: DIQMTQSPSSLSASVGDRVTITCKTSQNINRYLNWYQQKPGKAPKLLIYNANSLQTGVPSRFSGSGSGTDFTLTISSLQPEDFATYFCLQDNSWPLTFGQGTKVEIKR
notes: effector-null human IgG1, kappa
B2: optimized anti-E-selectin antibody 1444 (antibody, human IgG1, kappa, V domains shown)
VH: B1 VH with N28A, S32A, A61V, E62D, K63S, F64V, K65T, I66G
VL: B1 VL with N30E, N50A, N52S, T56S, S93A
notes: as for B1
B3: optimized anti-E-selectin antibody 1284 (antibody, human IgG1, kappa, V domains shown)
VH: B1 VH with N28A, S32A, A61V, K63S, F64V, K65E, I66G
VL: B1 VL with N30E, N50A, N52S, T56S, S93A
notes: as for B1
B4: optimized anti-E-selectin antibody 1282 (antibody, human IgG1, kappa, V domains shown)
VH: B1 VH with N28A, S32A, A61V, E62D, K63S, F64V, K65E, I66G
VL: B1 VL with N30E, N50A, N52S, T56S, S93A
notes: as for B1
B5: optimized anti-E-selectin antibody 1448 (antibody, human IgG1, kappa, V domains shown)
VH: B1 VH with N28A, S32A, A61V, E62D, K63S, F64V, I66E
VL: B1 VL with N30E, N50A, N52S, T56S, S93A
notes: as for B1

biological target: T1, recombinant histidine-tagged cynomolgus …; experiment: direct binding ELISA, His-tagged selectin on plate
Method: (§1) Recombinant histidine tagged human P-, E- or L-selectin (Sino Biologicals), mouse E-selectin (Sino Biologicals), rat E-selectin (Sino Biologicals) and Cynomolgus monkey E-selectin (Sino Biologicals) stock solutions were prepared to a final concentration of 1 μg/mL in phosphate buffered saline without calcium and magnesium. Controls included an L-selectin directed antibody (BioLegend; 304811) or P-selectin directed antibody or a negative control IgG. One hundred μL per well of the diluted recombinant selectin proteins were added into a Ni-NTA HisSorb 96 well plate (Qiagen; 35061). Plates were incubated on an orbital shaker at room temperature for 2 hours. Following the incubation, the plates were washed 3 times with 200 μL of wash buffer (50 mM TRIS [trisaminomethane]; 150 mM sodium chloride; 0.05% polysorbate 20, pH 7.4). To decrease nonspecific binding, plates were treated with 200 μL of blocking buffer (BD Opteia buffer; 555213; BD Biosciences), incubated on an orbital shaker for 1 hour at room temperature and washed as described above. […] One hundred μL specific detection antibodies (described below) were added and incubated for 1 hour: [0556] […] Anti L-selectin and anti-rat-E-selectin antibodies were detected using 1 to 25000 dilution of Peroxidase-conjugated AffiniPure Goat Anti-Mouse IgG (H+L); (Jackson ImnnunoResearch Lab).
(§2) Plates were washed and 100 μL per well of 1-Step Ultra TMB substrate (Thermo Scientific) was added and incubated for 5 minutes at room temperature. Reactions were stopped with 100 μL of 2 M sulfuric acid and absorbance read at 450 nm (Spectramax M5e).

EC50 [nM]	Binder
0.081	B1
0.093	B2
0.082	B3

biological target: T2, recombinant histidine-tagged human …; experiment: direct binding ELISA, His-tagged selectin on plate
Method: as §1, §2

EC50 [nM]	Binder
0.17	B1
0.12	B2
0.1	B3

biological target: T3, free soluble human E-selectin in human …; experiment: IP-LC/MS/MS of free soluble E-selectin in human serum, capture by biotinylated 0164
Method: This method quantified free soluble human E-selectin in human serum or free soluble monkey E-selectin in cynomolgus monkey serum. The method used 50 μL of serum in 250 μL of PBS which was incubated overnight at 4° C. […] After incubation, 30 μL of Invitrogen T1 streptavidin magnetic beads were added to each sample followed by incubation for 40 minutes at room temperature (shaking at 1000 rpm). Using a Hamilton Microlabstar, the magnetic beads were then washed two times with PBS/0.05% Tween-20 followed by one wash with PBS. Soluble E-selectin was then eluted from the beads with 145 μL of 30 mM hydrochloric acid (HCl) and neutralized with 32 μL of 1 M Tris HCl, pH 8. Subsequently 50 fmol of stable isotope labeled (SIL) internal standard was added, followed by the addition of dithiothreitol (DTT, 10 μL×50 mM). After incubating 35 minutes at 60° C. the samples were allowed to cool to room temperature prior to the addition of iodoacetamide (IAA, 10 μL×100 mM). Samples were then placed in the dark for 30 minutes to which 1 μg of Promega LysC/trypsin (10 μL×100 […]) was added and then digested overnight at 37° C.
After overnight incubation, 50 μL of prepared sample was injected onto the nano ESILC-MS/MS.

IC50 [nM]	IC90 [nM]	Binder
2.4	4.9	B4
1.2	6.5	B2
1.8	8.6	B5
1.1	4.8	B3
